Measured values from paper PMC8511506 (Cell Reports, 2021).

B1: CYLD CAP-Gly3 (aa 467-565), crystal form 2 (domain or fragment, human, UniProt Q9NQC7 467-565, looked up)
chain: SHGLEVGSLAEVKENPPFYGVIRWIGQPPGLNEVLAGLELEDECAGCTDGTFRGTRYFTCALKKALFVKLKSCRPDSRFASLQPVSNQIERCNSLAFGG
notes: also called CAP-Gly3 (467-565); source: E. coli Rosetta2 (DE3) pLacI, purified (HisTrap, anion exchange, SEC)
B2: CYLD CAP-Gly3 (aa 460-582) (domain or fragment, human, UniProt Q9NQC7 460-582, looked up)
chain: LAMPPGNSHGLEVGSLAEVKENPPFYGVIRWIGQPPGLNEVLAGLELEDECAGCTDGTFRGTRYFTCALKKALFVKLKSCRPDSRFASLQPVSNQIERCNSLAFGGYLSEVVEENTPPKMEKE
notes: CYLD, human, third CAP-Gly domain with flanking residues, aa 460-582; 15N- or 15N,13C-labelled where it was the observed protein in NMR; also called pOPINS-CYLD 460-582; source: E. coli Rosetta2 (DE3) pLacI, purified (HisTrap, anion exchange, SEC)
B3: CYLD CAP-Gly3 (aa 467-552), crystal form 1 (domain or fragment, human, UniProt Q9NQC7 467-552, looked up)
chain: SHGLEVGSLAEVKENPPFYGVIRWIGQPPGLNEVLAGLELEDECAGCTDGTFRGTRYFTCALKKALFVKLKSCRPDSRFASLQPVS
notes: CYLD, human, third CAP-Gly domain extended C-terminally, aa 467-552 (the crystallisation methods say 465-552); also called CAP-Gly3 (467-552); source: E. coli Rosetta2 (DE3) pLacI, purified (HisTrap, anion exchange, SEC)
B4: NEMO ZnF domain (aa 383-419) (domain or fragment, UniProt Q9Y6K9 383-419, looked up)
chain: SQRRSPPEEPPDFCCPKCQYQAPDMDTLQIHVMECIE
notes: NEMO/IKKγ, zinc finger domain, aa 383-419; Expression and purification of this construct are not described; also called NEMO/IKKγ; pOPINB-NEMO 383-419
B5: CYLD CAP-Gly2 (aa 226-313) (domain or fragment, human, UniProt Q9NQC7 226-313, looked up)
chain: ELPPLEINSRVSLKVGETIESGTVIFCDVLPGKESLGYFVGVDMDNPIGNWDGRFDGVQLCSFACVESTILLHINDIIPALSESVTQE
notes: CYLD, human, second CAP-Gly domain, aa 226-313; Isotope-labelled where it was the observed protein in NMR; also called pOPINS-CYLD 226-313; source: E. coli Rosetta2 (DE3) pLacI, purified (HisTrap, anion exchange, SEC)

Assays:
Conditions in all cases: both partners purified
[1] = target: T1, Ubiquitin (UniProt P0CG47 1-76); test: crystal structure; CAP-Gly3 co-crystallised with 1.1 molar excess of Ub, sitting-drop vapor diffusion; molecular replacement
T1 construct: ubiquitin (mono-ubiquitin), the cut product of the ubiquitin precursors; 15N-labelled in the Ub-observed NMR experiments, unlabelled in ITC, crystallisation and the CAP-Gly-observed NMR

[2] = target: T1, Ubiquitin; test: NMR titration; 15N-labelled Ub observed (BEST-TROSY, weighted chemical shift perturbations), unlabelled CAP-Gly domain added (3-fold molar excess for CAP-Gly3); 298 K; 20 mM Tris pH 7.4, 100 mM NaCl, 4 mM DTT
[3] = target: B2; test: NMR titration; isotope-labelled CAP-Gly domain or variant observed (BEST-TROSY, chemical shift perturbations), unlabelled partner added (Ub at 3-fold molar excess, or NEMO ZnF); 298 K; 20 mM Tris pH 7.4, 100 mM NaCl, 4 mM DTT
[4] = target: T2, CYLD CAP-Gly3 L475P (aa 467-582) (human, UniProt Q9NQC7 467-582, L475P); test: as above
T2 construct: CYLD, human, third CAP-Gly domain, aa 467-582, with L475P; Isotope-labelled for NMR; also called pOPINS-CYLD 467-582 L475P; source: E. coli Rosetta2 (DE3) pLacI, purified (HisTrap, anion exchange, SEC)
T2 sequence (looked up): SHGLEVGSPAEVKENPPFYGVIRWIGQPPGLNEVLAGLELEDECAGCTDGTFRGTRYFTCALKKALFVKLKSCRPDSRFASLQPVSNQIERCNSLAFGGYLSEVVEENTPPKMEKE

Row | Binder | binding result [1] | binding result [2] | further results
1 | B1 | binds | – | –
2 | B2 | – | binds | –
3 | B3 | binds | – | –
4 | B4 | – | – | binding result [3]: binds; binding result [4]: binds
5 | B5 | – | binds | –
